From article PMC5222340, “The Arginine Pairs and C-Termini of the Sso7c4 from Sulfolobus solfataricus Participate in Binding and Bending DNA”

Columns and labels:
[1] = target: T1, C-terminally truncated Sso7c4 (Sulfolobus solfataricus P2, UniProt A0A0E3K9N8 1-48, del49-54); assay: fluorescence polarization; 20 mM Tris-Cl pH 7.5, no added salt, 25 C; FP with 100 nM FAM-DNA, 1 h at room temperature; conditions: protein: recombinant; chain copies: 2; label: 5'-FAM; blunt, self-complementary
T1 chain: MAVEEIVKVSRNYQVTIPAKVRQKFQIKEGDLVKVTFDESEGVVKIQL

[2] = target: T2, Sso7c4 wild-type (Sulfolobus solfataricus P2, UniProt A0A0E3K9N8 1-54); assay: as above; conditions: protein: recombinant; chain copies: 2; label: 5'-FAM; blunt, self-complementary
Target sequence in this assay (A0A0E3K9N8 entry or part of it): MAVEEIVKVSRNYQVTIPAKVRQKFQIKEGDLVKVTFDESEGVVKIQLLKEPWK

[3] = target: T1, C-terminally truncated Sso7c4; assay: bulk FRET; saturating protein; slight change; 20 mM Tris-Cl pH 7.5, no added salt, 25 C; FP with 100 nM FAM-DNA, 1 h at room temperature; conditions: protein: recombinant; chain copies: 2; label: Cy3 and Cy5 on the 5' ends; blunt
[4] = target: T2, Sso7c4 wild-type; assay: bulk FRET; saturating protein; DNA bent; 20 mM Tris-Cl pH 7.5, no added salt, 25 C; FP with 100 nM FAM-DNA, 1 h at room temperature; conditions: protein: recombinant; chain copies: 2; label: Cy3 and Cy5 on the 5' ends; blunt
[5] = target: T2, Sso7c4 wild-type; assay: tryptophan fluorescence quenching; 20 mM Tris-Cl pH 7.5, no added salt, 25 C; FP with 100 nM FAM-DNA, 1 h at room temperature; conditions: protein: recombinant; chain copies: 2; blunt, self-complementary
Target sequence in this assay (A0A0E3K9N8 entry or part of it): as above

[6] = target: Sso7c4-R22A (Sulfolobus solfataricus P2, UniProt A0A0E3K9N8 1-54, R22A); assay: fluorescence polarization; 20 mM Tris-Cl pH 7.5, no added salt, 25 C; FP with 100 nM FAM-DNA, 1 h at room temperature; conditions: protein: recombinant; chain copies: 2; label: 5'-FAM; blunt, self-complementary
[7] = target: Sso7c4-R11A (Sulfolobus solfataricus P2, UniProt A0A0E3K9N8 1-54, R11A); assay: as above; conditions: protein: recombinant; chain copies: 2; label: 5'-FAM; blunt, self-complementary
[8] = target: T1, C-terminally truncated Sso7c4; assay: bulk FRET; saturating protein; DNA straightened; 20 mM Tris-Cl pH 7.5, no added salt, 25 C; FP with 100 nM FAM-DNA, 1 h at room temperature; conditions: protein: recombinant; chain copies: 2; label: Cy3 and Cy5 on the 5' ends; blunt

Chain of Sso7c4-R11A (A0A0E3K9N8 entry or part of it R11A | R11A R11A): as the sequence (A0A0E3K9N8 entry or part of it) above, with R11A counted along it
Chain of Sso7c4-R22A (A0A0E3K9N8 entry or part of it R22A | R22A R22A): as the sequence (A0A0E3K9N8 entry or part of it) above, with R22A counted along it

B1: 5'-FAM-10-bp DNA (dsDNA)
DNA 1: CCTACGTAGG
DNA 2: CCTACGTAGG
Kd [1]: 11 ± 0.41 µM | Kd [2]: 3.12 ± 0.16 µM

B2: 24 bp FRET DNA (dsDNA)
DNA 1: CGTGCTCTGCGATCTCTTCGATAA
DNA 2: TTATCGAAGAGATCGCAGAGCACG
binding result [3]: binds | binding result [4]: binds

B3: 20-bp DNA unlabeled (dsDNA)
DNA 1: CCAACACTGGCCAGTGTTGG
DNA 2: CCAACACTGGCCAGTGTTGG
Kd [5]: 22.8 µM

B4: 5'-FAM-20-bp DNA (dsDNA)
DNA 1: CCAACACTGGCCAGTGTTGG
DNA 2: CCAACACTGGCCAGTGTTGG
Kd [6]: 5.07 ± 0.15 µM | Kd [1]: 12 ± 0.53 µM | Kd [7]: 3.19 ± 0.12 µM | Kd [2]: 2.73 ± 0.18 µM

B5: 30 bp FRET DNA (dsDNA)
DNA 1: CGTGCTCTGCGATCTCTTCGATAACCATAG
DNA 2: CTATGGTTATCGAAGAGATCGCAGAGCACG
binding result [8]: binds | binding result [4]: binds

B6: 5'-FAM-8-bp DNA (dsDNA)
DNA 1: CGCTAGCG
DNA 2: CGCTAGCG
Kd [1]: 15.9 ± 0.53 µM | Kd [2]: 14.2 ± 0.26 µM
